Test results reported in the nanobody polyreactivity screen of Harvey et al. (2022).

Experiment: yeast display, Sf9 membrane polyspecificity reagent, FACS + sequencing; frameworks hold sequencing errors
Method in brief: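 In a synthetic yeast display library (Saccharomyces cerevisiae BJ5465), nanobody expression was induced with galactose for 36–48 hours. FACS gates were set low and high (top ~1%) using anti-HA fluorescence for expression and streptavidin fluorescence for binding of the Sf9 membrane reagent. Each polyreactivity label is drawn from the gate of origin.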

| Sequence | polyreactivity (PSR sort gate) |
| --- | --- |
| QVQLVESGGGLVQAGGSLRLSCAASGSTFRYNAMGWYRQARGKERELVGGITSSGGTYAHSVKGRFTISRDNAKNTVYLQMNSLKPEDTAVYYCNALGVQDEFDYWGQGTQVTVSS | low polyreactivity |
| QVQLVESGGGLVQAGGSLRLSCAASGSTFRYNARGWYRQAPGKERELVADIRRSGGSTYYADSVKGRFTISRDNAKNTVYLQMNSLKPEDTAVYYCNAAVSRLYYHSYSYRSYYYWGQGTQVTVSS | high polyreactivity |
| QVQLVESGGGLVQAGGSLRLSCAASGSTFRYNDMGWYRQAPGKERELVADITSGGGTYYADSVKGRFTISRDNAKNTVYLQMNSLKPEDTAVYYCNADGFYDYPGWYGLVYWYDYWGQGTQVTVSS | high polyreactivity |
| QVQLVESGGGLVQAGGSLRLSCAASGSTFRYNLMGWYRQAPGKERELVAAISAVGSTYYADSVKGRFTISRDNAKNTVYLQMNSLKAEDTAVYYCAASYDWRAYRRDFYYWLTGDYWGQGTQVTVSS | low polyreactivity |
| QVQLVESGGGLVQAGGSLRLSCAASGSTFRYNVMGWYRQAPGKERELVATISYSGGSTNYADSVKGRFTISRDNAKNSVYLEIKSLKPVDTAVYYCAARYLYPFYGYWWYDYWGQGTQVTVSS | high polyreactivity |
| QVQLVESGGGLVQAGGSLRLSCAASGSTFRYYAMGWYRPAPGKERELVAVISTSGNTYYADSVKGRFTISRDNAKNTVYLQMNSLKPEDTAVYYCAARGVGGQISQEYDYWGQGTQVTVSS | low polyreactivity |
| QVQLVESGGGLVQAGGSLRLSCAASGSTFRYYAMGWYRQAPGKEREFVAAITASGVTTYYADSVKGRFTISRDNAKNTVYLQMNSLKPEDTAVYYCAARLYYNYRGRYNYWGQGTQVTVSS | high polyreactivity |
| QVQLVESGGGLVQAGGSLRLSCAASGSTFRYYAMGWYRQAPGKERELVAAISRSGGSTSYADSVKGRFTISRDNAKNTVYLQMNSLKPEDTAVYSCAARIYRKYYRYDYWGQGTQVTVSS | high polyreactivity |
| QVQLVESGGGLVQAGGSLRLSCAASGSTFRYYAMGWYRQAPGKERELVAAISTSGGRTYYADSVKGRFTISRDNAKNTVYLQMNSLKPEDTAVYYCNARESRGYSDQTWKYYYWGQGTQVTVSS | high polyreactivity |
| QVQLVESGGGLVQAGGSLRLSCAASGSTFRYYAMGWYRQAPGKERELVAAISWSGGSTYYADSVKGRFTISRDNAKNTVYLQMNSLKPEDTEVYYCNKAWFPYYYYRFDYWGQGTQVTVSS | high polyreactivity |
| QVQLVESGGGLVQAGGSLRLSCAASGSTFRYYAMGWYRQAPGKERELVASITWSGGSTYYADSVKGRFTISRDNAKNTVYLQMNSLNPEDTAVYYCAARQYIGSPPHRRRFDYWGKGTQVTVSS | high polyreactivity |
| QVQLVESGGGLVQAGGSLRLSCAASGSTFRYYAMGWYRQAPGKERELVAVISASGGTTYYADSVKGRFTISRDNAKNTVYLQMNSLKPEDTAVYYCAAREGWGFYYWGQGTQVTVSS | high polyreactivity |
| QVQLVESGGGLVQAGGSLRLSCAASGSTFRYYSMGWYRQAPGKERELVAVISKSGARTYYADSVKGRFTISRDNAKNTVYLQMNSLQPEETSVYYCNAVFKLDSHYAMCYWGQGTQVTVSS | high polyreactivity |
| QVQLVESGGGLVQAGGSLRLSCAASGSTFRYYVMGWYRPAPGKERELVAAITRGGSTNYADSVKGRFTISRDNAKNTVYLQMNSLKPEDTAVYYCAARGGWKRPFGYQLQYDYWGQGTQVTVSS | high polyreactivity |
| QVQLVESGGGLVQAGGSLRLSCAASGSTFRYYVMGWYRQAPGKERELVAAISSSGGSTYYADSVKGRFTISRDIAKNTVYLQMNSLKPEDTAVYYCARDKGYVSYRYNYWGQGTQVTVSS | high polyreactivity |
| QVQLVESGGGLVQAGGSLRLSCAASGSTFRYYVMGWYSQSPGKERELVAGISYRGGTTYYADSVKGRFTISRDNAKNTVYLQMYILKPEDTAVYYCNAETAAAQASYDRLYVLLDYWGQGTQVTVSS | low polyreactivity |

| Sequence | polyreactivity (PSR sort gate) |
| --- | --- |
| QVQLVESGGGLVQAGGSLRLSCAASGSTFSANPMGWYRQAPGKERELVASISRRGGSTYYADSVKGRFTISRDNAKNTVYLQMNNLKPEDTAVYYCAAYYEYRRDYWGQGTQVTVSS | high polyreactivity |
| QVQLVESGGGLVQAGGSLRLSCAASGSTFSAYAMGGYRQAPGKERELVAVITSGASTYYADSVKGRFTISRDNAKNTVYLQMNSLKPEDTAVYYCAAYGYSYRGWRMDYWGQGTQVTVSS | high polyreactivity |
| QVQLVESGGGLVQAGGSLRLSCAASGSTFSDNAMGWYRQAPGKERELVAANTSGGSTYYADSVKGRFTISRDNAKNTVYLQMNSLKPEDTAVYYCAADYWGQGTQVTVSS | low polyreactivity |
| QVQLVESGGGLVQAGGSLRLSCAASGSTFSDYPMGWYRQAPGKERELVAAISDSGSGTYYADSVKGRFTISRDNAKNTVYLQMNSLKPEDTAVYYCNTDPRFAMDWGQGTQVTVSS | low polyreactivity |
| QVQLVESGGGLVQAGGSLRLSCAASGSTFSDYTMGWYRQAPGKERELVAAITTIGGSTYYADSVKGRFTISRDNAKNTVYLQMNSLKPEDTAVYYCAASYYYPFEYYYWGQGTQVTVSS | low polyreactivity |
| QVQLVESGGGLVQAGGSLRLSCAASGSTFSENAMGWSRQAPGKERELVAAISWGGGSTYYADSVKGRFTISRDNAKNTVYLQMNSLKPEDTAVYYCNADVFDDYGYFESDYWGQGTQVTVSS | low polyreactivity |
| QVQLVESGGGLVQAGGSLRLSCAASGSTFSEYGMGWYRQAPGKERELVARITSGGSPYYADSVKGRFTISRDNAKYTVYLQMNSLKPEDTAVYYCATVKTRDYWGQGTQVTVSS | low polyreactivity |
| QVQLVESGGGLVQAGGSLRLSCAASGSTFSFYAMGWYRQAPGKERELVAAISWSDGSTYYADSVKGRFTISRDNAKNTVYLQMNSLKPEDTAVYYCAARRLAYIFYTVGYDYWGQGTQVTVSS | low polyreactivity |
| QVQLVESGGGLVQAGGSLRLSCAASGSTFSFYDMGWSRQAPGKEPELVAAITGSGGTTYYADSVKVRFTISRDNAKNTVYFQMNILKPEDTAFYYCAADSLESYPDYEYDFWGQGTQVTVSS | low polyreactivity |
| QVQLVESGGGLVQAGGSLRLSCAASGSTFSGNAMGWDRQAPGKESELVAAINSVRTYYADSVKGRFTISRDNAKNTVYLQMNSLKQEDTAVYYCNAEGYVSLSQYGVRRHSDYWGQGTQVNVSS | high polyreactivity |
| QVQLVESGGGLVQAGGSLRLSCAASGSTFSGNAMGWYRQAPGKERELVAAITSSGGSTYYADSVKGRFTISRDTAKNTVYLQMNSLKPEDTAVYYCAAKSRRTRRSYYWGQGTQVTVSS | high polyreactivity |
| QVQLVESGGGLVQAGGSLRLSCAASGSTFSGYAMGWYRQAPGKERELVAAISTSGGRTYYADSVKGRFTISRDNAKNTVYLQMNSLKPEDTAVYYCAAQYRGLYKGLGSWGQGTQVTVSS | high polyreactivity |
| QVQLVESGGGLVQAGGSLRLSCAASGSTFSGYAMGWYRQAPGKERELVAAITSGGSTNYADSVKGRFTISRDNAKNTVYLQMNSLKPEDTAVYYCAADSREVSTTAYYYWGQGTQVTVSS | low polyreactivity |
| QVQLVESGGGLVQAGGSLRLSCAASGSTFSGYAMGWYRQAPGKERELVAGIRLDGSRTYYADSVKGRFTISRDNAKNTVYLQMNSLKPEDTAVYYCAAPSGTYWTRREYWGQGSQVTVSS | low polyreactivity |
| QVQLVESGGGLVQAGGSLRLSCAASGSTFSGYVMGWYRQAPGKERELVAAISWGGSRTYYADSVKGRFTISRDNAKNTVYLQMNSLKPEDTAVYYCNAYTSYGTFFYWAWPYYYWGQGTQVTVSS | high polyreactivity |
